Source: US20200018762

Assays:
[1] = target: purified H4 protein (Example 3), P62805
[2] = target: T1, biotinylated H4-derived unphosphorylated peptide TVTAMDVVYALKRQGRT
T1 chain: TVTAMDVVYALKRQGRT

[3] = target: purified histone H3 (Example 2), P68431

B1: purified constitutively active E346K-Ack1 (HA-tagged) (protein)
chain: MQPEEGTGWLLELLSEVQLQQYFLRLRDDLNVTRLSHFEYVKNEDLEKIGMGRPGQRRLWEAVKRRKALCKRKSWMSKVFSGKRLEAEFPPHHSQSTFRKTSPAPGGPAGEGPLQSLTCLIGEKDLRLLEKLGDGSFGVVRRGEWDAPSGKTVSVAVKCLKPDVLSQPEAMDDFIREVNAMHSLDHRNLIRLYGVVLTPPMKMVTELAPLGSLLDRLRKHQGHFLLGTLSRYAVQVAEGMGYLESKRFIHRDLAARNLLLATRDLVKIGDFGLMRALPQNDDHYVMQEHRKVPFAWCAPESLKTRTFSHASDTWMFGVTLWEMFTYGQEPWIGLNGSQILHKIDKKGERLPRPEDCPQDIYNVMVQCWAHKPEDRPTFVALRDFLLEAQPTDMRALQDFEEPDKLHIQMNDVITVIEGRAENYWWRGQNTRTLCVGPFPRNVVTSVAGLSAQDISQPLQNSFIHTGHGDSDPRHCWGFPDRIDELYLGNPMDPPDLLSVELSTSRPPQHLGGVKKPTYDPVSEDQDPLSSDFKRLGLRKPGLPRGLWLAKPSARVPGTKASRGSGAEVTLIDFGEEPVVPALRPCAPSLAQLAMDACSLLDETPPQSPTRALPRPLHPTPVVDWDARPLPPPPAYDDVAQDEDDFEICSINSTLVGAGVPAGPSQGQTNYAFVPEQARPPPPLEDNLFLPPQGGGKPPSSAQTAEIFQALQQECMRQLQAPAGSPAPSPSPGGDDKPQVPPRVPIPPRPTRPHVQLSPAPPGEEETSQWPGPASPPRVPPREPLSPQGSRTPSPLVPPGSSPLPPRLSSSPGKTMPTTQSFASDPKYATPQVIQAPGPRAGPCILPIVRDGKKVSSTHYYLLPERPSYLERYQRFLREAQSPEEPTPLPVPLLLPPPSTPAPAAPTATVRPMPQAALDPKANFSTNNSNPGARPPPPRATARLPQRGCPGDGPEAGRPADKIQMAMVHGVTTEECQAALQCHGWSVQRAAQYLKVEQLFGLGLRPRGECHKVLEMFDWNLEQAGCHLLGSWGPAHHKR
[1]
  in vitro kinase assay, immunoblot with pTyr51-H4 antibody: When purified E346K-Ack1 and H4 were incubated, H4 was Tyr51-phosphorylated, however, Ack1 inhibitor AIM-100 abrogated H4 pTyr51-phosphorylation (FIG. 26B)

B2: purified Ack1 (Examples 2 and 5) (protein)
chain: MQPEEGTGWLLELLSEVQLQQYFLRLRDDLNVTRLSHFEYVKNEDLEKIGMGRPGQRRLWEAVKRRKALCKRKSWMSKVFSGKRLEAEFPPHHSQSTFRKTSPAPGGPAGEGPLQSLTCLIGEKDLRLLEKLGDGSFGVVRRGEWDAPSGKTVSVAVKCLKPDVLSQPEAMDDFIREVNAMHSLDHRNLIRLYGVVLTPPMKMVTELAPLGSLLDRLRKHQGHFLLGTLSRYAVQVAEGMGYLESKRFIHRDLAARNLLLATRDLVKIGDFGLMRALPQNDDHYVMQEHRKVPFAWCAPESLKTRTFSHASDTWMFGVTLWEMFTYGQEPWIGLNGSQILHKIDKEGERLPRPEDCPQDIYNVMVQCWAHKPEDRPTFVALRDFLLEAQPTDMRALQDFEEPDKLHIQMNDVITVIEGRAENYWWRGQNTRTLCVGPFPRNVVTSVAGLSAQDISQPLQNSFIHTGHGDSDPRHCWGFPDRIDELYLGNPMDPPDLLSVELSTSRPPQHLGGVKKPTYDPVSEDQDPLSSDFKRLGLRKPGLPRGLWLAKPSARVPGTKASRGSGAEVTLIDFGEEPVVPALRPCAPSLAQLAMDACSLLDETPPQSPTRALPRPLHPTPVVDWDARPLPPPPAYDDVAQDEDDFEICSINSTLVGAGVPAGPSQGQTNYAFVPEQARPPPPLEDNLFLPPQGGGKPPSSAQTAEIFQALQQECMRQLQAPAGSPAPSPSPGGDDKPQVPPRVPIPPRPTRPHVQLSPAPPGEEETSQWPGPASPPRVPPREPLSPQGSRTPSPLVPPGSSPLPPRLSSSPGKTMPTTQSFASDPKYATPQVIQAPGPRAGPCILPIVRDGKKVSSTHYYLLPERPSYLERYQRFLREAQSPEEPTPLPVPLLLPPPSTPAPAAPTATVRPMPQAALDPKANFSTNNSNPGARPPPPRATARLPQRGCPGDGPEAGRPADKIQMAMVHGVTTEECQAALQCHGWSVQRAAQYLKVEQLFGLGLRPRGECHKVLEMFDWNLEQAGCHLLGSWGPAHHKR
[2]
  in vitro kinase assay on immobilized peptide, ELISA with pY88-H4 antibodies: Incubation of H4 peptide with WEE1 and Ack1 protein resulted in robust H4 Tyr88-phosphorylation
[3]
  in vitro kinase reaction, immunoblot with pTyr99-H3 antibody: Ack1 directly phosphorylates histone H3 at Tyr99 (FIG. 23)
